Changes are numbered by the printed parent chain.
B1: 01C09R3LS VHH Mono-Fc (Fc fusion)
chain: EVQLVESGGGLVQAGGSLRLSCAASGRTINTYVMGWFRQAPGKEREFVARIDWSGSSTDYADSVKGRFTISRDNAKNTVYLQMNSLKPEDTAVYYCAGSAYYSGYVTHRDFGSWGQGTQVTVSSSPAPELLGGPSVFLFPPKPKDTLMISRTPEVTCVVVDVSHEDPEVKFNWYVDGVEVHNAKTKPREEQYNSTYRVVSVLTVLHQDWLNGKEYKCKVSNKALPAPIEKTISKAKGQPREPQVYTKPPSREEMTKNQVSLSCLVKGFYPSDIAVEWESNGQPENNYKTTVPVLDSDGSFRLASYLTVDKSRWQQGNVFSCSVMHEALHNHYTQKSLSLSPGK
B2: 01E09R3LS VHH Mono-Fc (Fc fusion)
chain: B1 chain with I70T, S85G, Q119L
B3: 01G10R3LS VHH Mono-Fc (Fc fusion)
chain: B1 chain with M34T
B4: 01B05R2 VHH Mono-Fc (Fc fusion)
chain: EVQLVESGGGLVQAGGSLRLSCAASGRSLSFDTYAMGWFRQAPGKEREFVASIDWNGGSTYYADSVKGRFTISRDNARNTVNLRMNSLKPDDTAVYYCAAARYYTSGTYFPANYWGQGTQVTVSSSPAPELLGGPSVFLFPPKPKDTLMISRTPEVTCVVVDVSHEDPEVKFNWYVDGVEVHNAKTKPREEQYNSTYRVVSVLTVLHQDWLNGKEYKCKVSNKALPAPIEKTISKAKGQPREPQVYTKPPSREEMTKNQVSLSCLVKGFYPSDIAVEWESNGQPENNYKTTVPVLDSDGSFRLASYLTVDKSRWQQGNVFSCSVMHEALHNHYTQKSLSLSPGK
B5: 01H05R3 VHH Mono-Fc (Fc fusion)
chain: B4 chain with E1Q, S30G, A35G, G37A, V66M, R78K, G107S
B6: 03C10R3 VHH Mono-Fc (Fc fusion)
chain: B4 chain with E1Q, A14R, S30G, S59N, R78K, V95A, Q117R, Q120L
B7: 03H05R3 VHH Mono-Fc (Fc fusion)
chain: QVQLVESGGGLVQAGGSLSLSCAASGRSLSFDTYAMSWFRQAPGKEREFVASIDWNGGSTSYADSMKGRFTISRDNAKNTVNLRIRSLKPDDTAVYFCASARYYIGGTYFPANYWGQGTQVTVSSSPAPELLGGPSVFLFPPKPKDTLMISRTPEVTCVVVDVSHEDPEVKFNWYVDGVEVHNAKTKPREEQYNSTYRVVSVLTVLHQDWLNGKEYKCKVSNKALPAPIEKTISKAKGQPREPQVYTKPPSREEMTKNQVSLSCLVKGFYPSDIAVEWESNGQPENNYKTTVPVLDSDGSFRLASYLTVDKSRWQQGNVFSCSVMHEALHNHYTQKSLSLSPGK
B8: 03G05R3 VHH Mono-Fc (Fc fusion)
chain: EVQLVESGGGLVQAGDSLRLSCAASGRALSFNTYAMAWFRQAPGKEREFVASITYNGGSTYYADSVKGRFTVTRDNGKNTVTLRMNSLKPDDTAVYYCASAQYWRSGTSFPANYWGQGTQVTVSSSPAPELLGGPSVFLFPPKPKDTLMISRTPEVTCVVVDVSHEDPEVKFNWYVDGVEVHNAKTKPREEQYNSTYRVVSVLTVLHQDWLNGKEYKCKVSNKALPAPIEKTISKAKGQPREPQVYTKPPSREEMTKNQVSLSCLVKGFYPSDIAVEWESNGQPENNYKTTVPVLDSDGSFRLASYLTVDKSRWQQGNVFSCSVMHEALHNHYTQKSLSLSPGK
B9: 01C04R3 VHH Mono-Fc (Fc fusion)
chain: B8 chain with E1Q, N79D, Q120L
B10: 01D06R2 VHH Mono-Fc (Fc fusion)
chain: QVQLVESGGGLVQAGDSLRLSCAASGRTLSFDTYAMAWFRQAPGKEREFVASIDWNGVNTYYADSVKGRFTVTRDNTKNTVTLRMNSLKTDDTAVYYCAAAQYYRSGTSFPANSWGQGTQVTVSSSPAPELLGGPSVFLFPPKPKDTLMISRTPEVTCVVVDVSHEDPEVKFNWYVDGVEVHNAKTKPREEQYNSTYRVVSVLTVLHQDWLNGKEYKCKVSNKALPAPIEKTISKAKGQPREPQVYTKPPSREEMTKNQVSLSCLVKGFYPSDIAVEWESNGQPENNYKTTVPVLDSDGSFRLASYLTVDKSRWQQGNVFSCSVMHEALHNHYTQKSLSLSPGK
B11: 01F04R3 VHH Mono-Fc (Fc fusion)
chain: B8 chain with E1Q, K67R, N76S, Q120L
B12: 02G03R3 VHH Mono-Fc (Fc fusion)
chain: EVQLVESGGGLVQAGGSLRLSCAASGMPDNIFSIKTMGWYRQAPGKERELVAAITSGGSTNYGDSVKDRFTISRDRIENTVNLEMNNLKPEDTAVYTCHADLTYIRFQDMEYWGKGTQVTVSSSPAPELLGGPSVFLFPPKPKDTLMISRTPEVTCVVVDVSHEDPEVKFNWYVDGVEVHNAKTKPREEQYNSTYRVVSVLTVLHQDWLNGKEYKCKVSNKALPAPIEKTISKAKGQPREPQVYTKPPSREEMTKNQVSLSCLVKGFYPSDIAVEWESNGQPENNYKTTVPVLDSDGSFRLASYLTVDKSRWQQGNVFSCSVMHEALHNHYTQKSLSLSPGK
B13: 01E10R3 VHH Mono-Fc (Fc fusion)
chain: QVQLVESGGGLVQSGGSLRLSCAASGRTFSDYAMGWFRQAPGKERELVAAITWNGGSTYYADSVKGRFTISRDNAKNTVDLQMNSLKPEDTAVYYCAADPLNSDSAGTYDYWGQGTLVTVSSSPAPELLGGPSVFLFPPKPKDTLMISRTPEVTCVVVDVSHEDPEVKFNWYVDGVEVHNAKTKPREEQYNSTYRVVSVLTVLHQDWLNGKEYKCKVSNKALPAPIEKTISKAKGQPREPQVYTKPPSREEMTKNQVSLSCLVKGFYPSDIAVEWESNGQPENNYKTTVPVLDSDGSFRLASYLTVDKSRWQQGNVFSCSVMHEALHNHYTQKSLSLSPGK
B14: 01C05R3LS VHH Mono-Fc (Fc fusion)
chain: B1 chain with Q119L
B15: 01B10R3LS VHH Mono-Fc (Fc fusion)
chain: B1 chain with E1Q, N30Y, T31G
B16: 01D07R3LS VHH Mono-Fc (Fc fusion)
chain: B1 chain with E1Q, Q119L
B17: 01G09R2 VHH Mono-Fc (Fc fusion)
chain: B1 chain with V64A, Q119L
B18: 01H11R3LS VHH Mono-Fc (Fc fusion)
chain: B1 chain with E1Q, T31G, N77T, M83T
B19: 01F01R2 VHH Mono-Fc (Fc fusion)
chain: QVQLVESGGGLVQAGGSLRLSCAASGRTFSSNPMGWFRQAPGKEREFVAAISWSGGGTYYADSVKGRFTISRDNAKNTVTLQMNSLKPEDTAVYYCASRDYSDPISLWVEDREYDYWGQGTQVTVSSSPAPELLGGPSVFLFPPKPKDTLMISRTPEVTCVVVDVSHEDPEVKFNWYVDGVEVHNAKTKPREEQYNSTYRVVSVLTVLHQDWLNGKEYKCKVSNKALPAPIEKTISKAKGQPREPQVYTKPPSREEMTKNQVSLSCLVKGFYPSDIAVEWESNGQPENNYKTTVPVLDSDGSFRLASYLTVDKSRWQQGNVFSCSVMHEALHNHYTQKSLSLSPGK
B20: 01A09R2 VHH Mono-Fc (Fc fusion)
chain: B19 chain with Q1E
B21: 03B07R3 VHH Mono-Fc (Fc fusion)
chain: B19 chain with Q122L
B22: 03D05R3 VHH Mono-Fc (Fc fusion)
chain: B19 chain with Q1E, D111G, Q122L

biological target: T1, human pIgR extracellular domain (ECD) (human, UniProt P01833 19-638); test: SPR, VHH captured by anti-Fc, ECD analyte
T1 construct: Bought from R&D Systems (Cat 2717-PG-050); also called hpIgR ECD
T1 sequence (P01833 other isoform, or with tags, fused parts or gaps): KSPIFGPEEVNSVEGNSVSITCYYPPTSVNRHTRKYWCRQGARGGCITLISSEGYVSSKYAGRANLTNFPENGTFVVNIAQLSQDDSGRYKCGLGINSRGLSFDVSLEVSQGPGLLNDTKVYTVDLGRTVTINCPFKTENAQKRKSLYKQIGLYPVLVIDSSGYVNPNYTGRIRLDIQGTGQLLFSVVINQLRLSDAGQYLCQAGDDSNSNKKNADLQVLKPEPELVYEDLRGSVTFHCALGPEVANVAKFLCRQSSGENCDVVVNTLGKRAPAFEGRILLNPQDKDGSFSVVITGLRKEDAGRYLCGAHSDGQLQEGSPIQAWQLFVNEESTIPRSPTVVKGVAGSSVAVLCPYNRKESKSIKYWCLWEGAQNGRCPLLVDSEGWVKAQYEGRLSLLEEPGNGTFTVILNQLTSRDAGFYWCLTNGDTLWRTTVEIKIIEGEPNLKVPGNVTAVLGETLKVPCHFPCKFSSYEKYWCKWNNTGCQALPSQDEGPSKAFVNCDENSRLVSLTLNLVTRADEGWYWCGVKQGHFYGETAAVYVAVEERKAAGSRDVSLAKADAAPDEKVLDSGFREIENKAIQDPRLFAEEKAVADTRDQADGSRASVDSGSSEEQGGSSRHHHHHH
Procedure: (§1) In an assay, two flow cells of the SPR were used, in which the flow cell 1 ran the buffer reference, and the flow cell 2 ran the analyte. […] The HBSP (GE) buffer was followed at a flow rate of 30 μL/min. Then, the VHHs were captured on the anti-human Fc protein surface at 0.5 ug/ml (˜200-300 RU) on the flow cell 2. The running buffer was changed to HBSP with 100 ug/ml BSA after the capture. Next, the pIgR extracellular domains were used as analyte and loaded in a series of concentrations, starting at 30 nM with further 3-fold dilution series.
(§2) The extracellular domains were prepared as follows: cynomolgus monkey and rat extracellular domains were produced and characterized in house; mouse and human pIgR extracellular domains were purchased from R&D Systems (Cat #2800-PG-050 & 2717-PG-050 respectively). The pIgR extracellular domains were injected from low to high concentration using a single-cycle kinetics method. The off-rate was monitored at 30 minutes after the last or highest concentration injection. The reference run was completed under the same conditions except that the pIgR injection was replaced by buffer injection.
(§3) The raw data were processed by subtracting two sets of reference data from the response data: (1) reference flow cell 1 subtracted from sample flow cell 2; and (2) buffer blank run subtracted from experimental run. The processed data at all concentrations for each VHH were globally fit to a 1:1 simple Langmuir binding model to extract estimates of the kinetic constants (kₒₙ, koff) and affinity constants (KD).

Row | Binder | Kd [nM]
1 | B1 | 6.92
2 | B2 | 8.39
3 | B3 | 18.5
4 | B4 | 3.55
5 | B5 | 7.54
6 | B6 | 1.67
7 | B7 | 2.93
8 | B8 | 3.7
9 | B9 | 3.09
10 | B10 | 1.44
11 | B11 | 5.92
12 | B12 | 1.48
13 | B13 | 1.39
14 | B14 | 5.77
15 | B15 | 38
16 | B16 | 9.78
17 | B17 | 6.58
18 | B18 | 8.42
19 | B19 | 2.13
20 | B20 | 2.14
21 | B21 | 2.33
22 | B22 | 2.14

biological target: T2, cynomolgus monkey pIgR extracellular domain (cynomolgus monkey, UniProt A0A2K5WMU9 19-638); test: SPR, VHH captured by anti-Fc, ECD analyte
T2 construct: extracellular domain
T2 sequence (A0A2K5WMU9 entry or part of it): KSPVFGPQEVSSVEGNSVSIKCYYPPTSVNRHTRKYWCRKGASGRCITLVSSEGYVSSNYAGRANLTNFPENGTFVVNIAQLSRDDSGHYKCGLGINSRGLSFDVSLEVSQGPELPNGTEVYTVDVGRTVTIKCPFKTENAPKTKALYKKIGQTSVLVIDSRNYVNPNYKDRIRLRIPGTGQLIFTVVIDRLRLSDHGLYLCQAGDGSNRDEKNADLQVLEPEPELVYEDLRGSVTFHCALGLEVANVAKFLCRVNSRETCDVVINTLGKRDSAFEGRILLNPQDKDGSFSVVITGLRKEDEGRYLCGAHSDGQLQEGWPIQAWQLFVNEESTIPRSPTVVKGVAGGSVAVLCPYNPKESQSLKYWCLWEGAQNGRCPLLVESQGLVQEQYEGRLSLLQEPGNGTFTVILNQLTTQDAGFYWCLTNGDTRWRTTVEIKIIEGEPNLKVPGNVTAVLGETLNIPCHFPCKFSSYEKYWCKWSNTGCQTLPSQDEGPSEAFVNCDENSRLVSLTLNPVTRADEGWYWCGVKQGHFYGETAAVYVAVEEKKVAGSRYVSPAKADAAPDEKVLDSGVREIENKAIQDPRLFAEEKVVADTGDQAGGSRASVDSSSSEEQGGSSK
Procedure: as §1, §2, §3

Row | Binder | Kd [nM]
23 | B1 | 93.7
24 | B2 | 135
25 | B3 | 287
26 | B4 | 177
27 | B5 | 406
28 | B6 | 17.5
29 | B7 | 108
30 | B8 | 30.1
31 | B9 | 46.3
32 | B10 | 14.4
33 | B11 | 30.9
34 | B12 | 3.99
35 | B13 | 23.2
36 | B14 | 84.9
37 | B15 | 192
38 | B16 | 103
39 | B17 | 106
40 | B18 | 252
41 | B19 | 4.08
42 | B20 | 4.02
43 | B21 | 4.26
44 | B22 | 4.59
